The values that follow come from article PMC10491619.

This assay addresses Exchange Protein Activated by cAMP 1, purified recombinant wild type. As to the kind of experiment: phase separation measured by centrifugation and A280 of the cleared supernatant; purified protein alone, with 30 uM cAMP; 5-25 uM protein at 50-250 mM NaCl, 25 mM Tris-HCl pH 8.8, 5 mM MgCl2; 20 °C, 15 min; 16,900 x g, 30 min.

Exchange Protein Activated by cAMP 1, purified recombinant wild type, sequence (O95398 whole entry): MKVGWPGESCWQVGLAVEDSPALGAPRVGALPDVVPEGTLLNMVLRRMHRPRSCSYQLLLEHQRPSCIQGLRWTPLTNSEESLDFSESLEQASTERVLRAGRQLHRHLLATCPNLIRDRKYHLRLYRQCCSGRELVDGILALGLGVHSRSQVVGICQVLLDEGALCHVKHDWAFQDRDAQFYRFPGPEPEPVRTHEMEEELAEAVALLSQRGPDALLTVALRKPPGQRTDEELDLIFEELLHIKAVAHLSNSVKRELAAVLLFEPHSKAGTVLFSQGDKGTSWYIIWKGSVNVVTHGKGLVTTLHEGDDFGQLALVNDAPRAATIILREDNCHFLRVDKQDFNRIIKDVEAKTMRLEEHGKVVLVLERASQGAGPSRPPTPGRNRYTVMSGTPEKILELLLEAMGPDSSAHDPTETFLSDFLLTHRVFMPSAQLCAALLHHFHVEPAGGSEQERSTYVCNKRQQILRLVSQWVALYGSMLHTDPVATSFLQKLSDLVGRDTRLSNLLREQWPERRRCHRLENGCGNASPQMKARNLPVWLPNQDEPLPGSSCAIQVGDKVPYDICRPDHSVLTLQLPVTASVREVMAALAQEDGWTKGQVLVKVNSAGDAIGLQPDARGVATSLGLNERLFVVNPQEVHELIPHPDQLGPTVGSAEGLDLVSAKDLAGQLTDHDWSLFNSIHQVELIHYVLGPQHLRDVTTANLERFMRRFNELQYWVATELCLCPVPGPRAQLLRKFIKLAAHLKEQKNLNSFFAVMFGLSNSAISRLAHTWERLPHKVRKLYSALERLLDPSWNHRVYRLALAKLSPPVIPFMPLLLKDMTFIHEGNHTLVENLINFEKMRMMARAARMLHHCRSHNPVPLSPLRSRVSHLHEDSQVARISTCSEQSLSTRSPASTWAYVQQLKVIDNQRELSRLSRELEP

“Exchange Protein Activated by cAMP 1, purified recombinant wild type (natural protein)”: the condensation ratio +cAMP/-cAMP at 150 mM salt amounted to 2.5 and the percent of protein in condensates (150 mM salt, with cAMP) came to 50%.
